The chains are these.
B1: Inhibitor of nuclear factor kappa-B kinase subunit beta (Homo sapiens), O14920 (parent)
chain: MSWSPSLTTQTCGAWEMKERLGTGGFGNVIRWHNQETGEQIAIKQCRQELSPRNRERWCLEIQIMRRLTHPNVVAARDVPEGMQNLAPNDLPLLAMEYCQGGDLRKYLNQFENCCGLREGAILTLLSDIASALRYLHENRIIHRDLKPENIVLQQGEQRLIHKIIDLGYAKELDQGSLCTSFVGTLQYLAPELLEQQKYTVTVDYWSFGTLAFECITGFRPFLPNWQPVQWHSKVRQKSEVDIVVSEDLNGTVKFSSSLPYPNNLNSVLAERLEKWLQLMLMWHPRQRGTDPTYGPNGCFKALDDILNLKLVHILNMVTGTIHTYPVTEDESLQSLKARIQQDTGIPEEDQELLQEAGLALIPDKPATQCISDGKLNEGHTLDMDLVFLFDNSKITYETQISPRPQPESVSCILQEPKRNLAFFQLRKVWGQVWHSIQTLKEDCNRLQQGQRAAMMNLLRNNSCLSKMKNSMASMSQQLKAKLDFFKTSIQIDLEKYSEQTEFGITSDKLLLAWREMEQAVELCGRENEVKLLVERMMALQTDIVDLQRSPMGRKQGGTLDDLEEQARELYRRLREKPRDQRTEGDSQEMVRLLLQAIQSFEKKVRVIYTQLSKTVVCKQKALELLPKVEEVVSLMNEDEKTVVRLQEKRQKELWNLLKIACSKVRGPVSGSPDSMNASRLSQPGQLMSQPSTASNSLPEPAKKSEELVAEAHNLCTLLENAIQDTVREQDQSFTALDWSWLQTEEEEHSCLEQAS

These results are taken from IntAct's records for PubMed 16365431.

The assay covers variants of B1. The settings on record: with ikba_human NFKBIA.
With K44M, the “effect of a mutation on the interaction” value was “disrupting interaction”.
